From patent publication US9523084B2, “Phosphodeoxyribosyl transferase mutant enzymes and uses thereof” (Centre National De La Recherche Scientifique, priority 2012, dated 2016)
Where a chain is given by its changes, count along the chain named. Names may count otherwise. One block for each molecule: values may come before it.

Legend:
[1] = substrate: Nc1ccn([C@H]2C[C@H](O)[C@@H](COP(=O)(O)O)O2)c(=O)n1; experiment: Kinetic parameters of PDT variants, dCMP + A ⇄ dAMP + C; type: biochemical, Lactobacillus leichmannii; details: adenine as acceptor, fixed, 37.0 °C
Experimental: (§1) The standard assay (“first protocol for enzyme assay”) for the different NDTs consisted of 5-15 μg of NDT in 50 mM MES buffer pH 6.0, dNxP (dNMP, or dNDP or dNTP) 3 mM and a base 1 mM in a total volume of 50 μL. Assays were incubated for 60 min at 37° C. The products of the reactions were analyzed each 7 min by Rapid resolution high performance liquid chromatography using a reverse-phase column (ZORBAX Eclipse XDB-C18 2.1*50 mm 1.8 μM) with a flow rate of 0.25 ml/min and a linear gradient of 1-12% CH3CN (2-25% CH3CN or 1-90% CH3CN) in 20 mM triethylammonium acetate, pH 7.5, buffer for 7 min. The low resolution mass spectra of the newly synthesized deoxyribonucleotides were obtained on an Agilent 1200 series LC/MS 6120 quadrupole system using an atmospheric electrospray ionization system.
This hypothesis was confirmed by monitoring the specific activity, in the presence of dCDP or dCTP as donor and adenine as acceptor (see table 2 above). The kinetic parameters were determined for the best variants with dCMP, dCDP and dCTP as substrates, at a concentration of A being fixed (see table 3 below).

[2] = Standard enzyme assay (HPLC): specific activities of PDT variants with natural purines and pyrimidines; type: biochemical; details: for Specific activity: donor 3 mM, acceptor 1 mM; for factor of enhancement of deoxyribose 5-phosphate transferase activity between C and A: upon substitution of F13 to arginine (PDTM3 from PDTM1, PDTM4 from PDTM2)
Experimental: as §1
Unless specifically mentioned, the results presented hereafter have been obtained by using the first protocol for performing the enzyme assay.

[3] = In vitro synthesis of deoxynucleotide analogues: specific activities; type: biochemical
Experimental: as §1
The donor concentration was 3 mM and the acceptor 1 mM except for dCTP 2 mM 5-BrU 1 mM and dAMP 2 mM 5-FU 1 mM. Activities are expressed in nanomoles of deoxynucleotides synthesized per min per mg of protein.

[4] = dAMP + 5-FU → A + 5-F-dUMP, dAMP 2 mM 5-FU 1 mM
[5] = dCMP + 2,6-D → C + 2,6-DMP, donor 3 mM, acceptor 1 mM
[6] = dCMP + 2,6-chloropurine → C + 2,6-dichloropurine 2′-deoxyribose 5′-monophosphate, donor 3 mM, acceptor 1 mM
[7] = dCMP + 5-BrU → C + 5-Br-dUMP, donor 3 mM, acceptor 1 mM
[8] = dCMP + 6-chloropurine → C + 6-chloropurine 2′-deoxyribose 5′-monophosphate, donor 3 mM, acceptor 1 mM

B1: Lactobacillus leichmannii nucleoside deoxyribosyltransferase (NDT, SEQ ID NO:1) variant PDTM3, R13 S92 (F13R/D92S), SEQ ID NO:5 (Lactobacillus leichmannii; … (protein)
chain: MPKKTIYFGAGWRTDRQNKAYKEAMEALKENPTIDLENSYVPLDNQYKGIRVDEHPEYLHDKVWATATYNNDLNGIKTNDIMLGVYIPDEESVGLGMELGYALSQGKYVLLVIPDEDYGKPINLMSWGVSDNVIKMSQLKDFNFNKPRFDFYEGAVY
notes: homohexamer (108 kDa)
Km ([1]; other: PDTM3): 22 mM
kcat ([1]; other: PDTM3): 0.3 s⁻¹

B2: PDTM2: NDT double mutant D92S, N123S, SEQ ID NO:4 (protein)
chain: B1 chain with R13F, N123S
modifications: PDTM2 enzyme mutant
Specific activity ([2]; dCMP + A ⇄ dAMP + C): 1.7 nanomoles of deoxynucleotides synthesized per min per mg of protein

B3: PDTT1: NDT mutant R13 G92 T93 S123 K157, SEQ ID NO:9 (protein)
chain: B1 chain with S92G, V93T, N123S, Y157K
modifications: PDTT1 enzyme mutant
Specific activity ([2]; dADP + C ⇄ dCDP + A): 12 nanomoles of deoxynucleotides synthesized per min per mg of protein
Specific activity ([2]; dADP + Hx ⇄ dIDP + A): <0.1 nanomoles of deoxynucleotides synthesized per min per mg of protein
Specific activity ([2]; dAMP + C ⇄ dCMP + A): 5 nanomoles of deoxynucleotides synthesized per min per mg of protein
Specific activity ([2]; dAMP + Hx ⇄ dIMP + A): <0.1 nanomoles of deoxynucleotides synthesized per min per mg of protein
Specific activity ([2]; dATP + C ⇄ dCTP + A): 1 nanomoles of deoxynucleotides synthesized per min per mg of protein
Specific activity ([2]; dATP + Hx ⇄ dITP + A): <0.1 nanomoles of deoxynucleotides synthesized per min per mg of protein
Specific activity ([2]; dCDP + A ⇄ dADP + C): 31 nanomoles of deoxynucleotides synthesized per min per mg of protein
Specific activity ([2]; dCDP + U ⇄ dUDP + C (U used as acceptor base instead of T)): 6 nanomoles of deoxynucleotides synthesized per min per mg of protein
Specific activity ([2]; dCMP + A ⇄ dAMP + C): 78 nanomoles of deoxynucleotides synthesized per min per mg of protein
Specific activity ([2]; dCMP + T ⇄ dTMP + C): <0.1 nanomoles of deoxynucleotides synthesized per min per mg of protein
Specific activity ([2]; dCTP + A ⇄ dATP + C): 10 nanomoles of deoxynucleotides synthesized per min per mg of protein
Specific activity ([2]; dCTP + T ⇄ dTTP + C): 1 nanomoles of deoxynucleotides synthesized per min per mg of protein
Specific activity ([2]; dGDP + A ⇄ dADP + G): 15 nanomoles of deoxynucleotides synthesized per min per mg of protein
Specific activity ([2]; dGMP + A ⇄ dAMP + G): 32 nanomoles of deoxynucleotides synthesized per min per mg of protein
Specific activity ([2]; dGTP + A ⇄ dATP + G): 25 nanomoles of deoxynucleotides synthesized per min per mg of protein

B4: PDTT0: NDT mutant R13 G92 T93 S123, SEQ ID NO:8 (protein)
chain: B1 chain with S92G, V93T, N123S
modifications: PDTT0 enzyme mutant
Specific activity ([2]; dAMP + C ⇄ dCMP + A): 23.7 nanomoles of deoxynucleotides synthesized per min per mg of protein
Specific activity ([2]; dAMP + Hx ⇄ dIMP + A): <0.1 nanomoles of deoxynucleotides synthesized per min per mg of protein
Specific activity ([2]; dCDP + A ⇄ dADP + C): <0.1 nanomoles of deoxynucleotides synthesized per min per mg of protein
Specific activity ([2]; dCMP + A ⇄ dAMP + C): 46.3 nanomoles of deoxynucleotides synthesized per min per mg of protein
Specific activity ([2]; dCMP + T ⇄ dTMP + C): <0.1 nanomoles of deoxynucleotides synthesized per min per mg of protein
Specific activity ([2]; dCTP + A ⇄ dATP + C): <0.1 nanomoles of deoxynucleotides synthesized per min per mg of protein
Specific activity ([2]; dGMP + A ⇄ dAMP + G): 49 nanomoles of deoxynucleotides synthesized per min per mg of protein

B5: PDTM1: NDT single mutant D92S, SEQ ID NO:3 (protein)
chain: B1 chain with R13F
modifications: PDTM1 enzyme mutant
Specific activity ([2]; dCMP + A ⇄ dAMP + C): 1.8 nanomoles of deoxynucleotides synthesized per min per mg of protein

B6: Lactobacillus leichmannii nucleoside deoxyribosyltransferase (NDT, SEQ ID NO:1) variant PDTM4, R13 S92 S123 (F13R/D92S/N123S), SEQ ID NO:6 (Lactobacillus … (protein)
chain: B1 chain with N123S
notes: homohexamer (108 kDa)
Km ([1]; other: PDTM4): 11 mM
kcat ([1]; other: PDTM4): 2.1 s⁻¹

fold lower activity than between C and A ([2]; transfer of deoxyribose 5-phosphate between A and C): two-fold
fold lower activity than between C and A ([2]; transfer of deoxyribose 5-phosphate between C and T): 4 fold
B7: PDTM3: NDT mutant R13 S92, SEQ ID NO:5 (protein)
chain: B1 chain
modifications: PDTM3 enzyme mutant
Specific activity ([2]; dAMP + C ⇄ dCMP + A): 34.7 nanomoles of deoxynucleotides synthesized per min per mg of protein
Specific activity ([2]; dAMP + Hx ⇄ dIMP + A): 2 nanomoles of deoxynucleotides synthesized per min per mg of protein
Specific activity ([2]; dCMP + A ⇄ dAMP + C): 79.7 nanomoles of deoxynucleotides synthesized per min per mg of protein
Specific activity ([2]; dCMP + T ⇄ dTMP + C): 18.2 nanomoles of deoxynucleotides synthesized per min per mg of protein
Specific activity ([2]; dGMP + A ⇄ dAMP + G): 8.5 nanomoles of deoxynucleotides synthesized per min per mg of protein
factor of enhancement of deoxyribose 5-phosphate transferase activity between C and A [2]: 50

B8: PDTM5: NDT mutant Q13 S92 S123, SEQ ID NO:7 (protein)
chain: B1 chain with R13Q, N123S
modifications: PDTM5 enzyme mutant
Specific activity [3, 4]: 47 nanomoles of deoxynucleotides synthesized per min per mg of protein
Specific activity [3, 5]: 78 nanomoles of deoxynucleotides synthesized per min per mg of protein
Specific activity [3, 6]: 19 nanomoles of deoxynucleotides synthesized per min per mg of protein
Specific activity [3, 7]: 26 nanomoles of deoxynucleotides synthesized per min per mg of protein
Specific activity [3, 8]: 15 nanomoles of deoxynucleotides synthesized per min per mg of protein
Specific activity ([2]; dAMP + C ⇄ dCMP + A): 206 nanomoles of deoxynucleotides synthesized per min per mg of protein
Specific activity ([2]; dAMP + Hx ⇄ dIMP + A): <0.1 nanomoles of deoxynucleotides synthesized per min per mg of protein
Specific activity ([2]; dCMP + A ⇄ dAMP + C): 296 nanomoles of deoxynucleotides synthesized per min per mg of protein
Specific activity ([2]; dCMP + T ⇄ dTMP + C): 1.7 nanomoles of deoxynucleotides synthesized per min per mg of protein
Specific activity ([2]; dGMP + A ⇄ dAMP + G): 81 nanomoles of deoxynucleotides synthesized per min per mg of protein

B9: NDTWT: wild-type nucleoside deoxyribosyltransferase of Lactobacillus leichmannii, SEQ ID NO:1 (F13E91D92V93N123Y157) (protein, listed as Lactobacillus leichmannii)
chain: B1 chain with R13F, S92D
Specific activity ([2]; dCMP + A ⇄ dAMP + C): 0.1 nanomoles of deoxynucleotides synthesized per min per mg of protein

B10: Lactobacillus leichmannii nucleoside deoxyribosyltransferase (NDT, SEQ ID NO:1) variant PDTT0, R13 G92 T93 S123 (F13R/D92G/V93T/N123S), SEQ ID NO:8 … (protein)
chain: B1 chain with S92G, V93T, N123S
notes: homohexamer (108 kDa)
Km ([1]; other: PDTT0): 9.2 mM
kcat ([1]; other: PDTT0): 0.45 s⁻¹

B11: Lactobacillus leichmannii nucleoside deoxyribosyltransferase (NDT, SEQ ID NO:1) variant PDTM5, Q13 S92 S123 (F13Q/D92S/N123S), SEQ ID NO:7 (Lactobacillus … (protein)
chain: B1 chain with R13Q, N123S
notes: homohexamer (108 kDa)
Km ([1]; other: PDTM5): 12 mM
kcat ([1]; other: PDTM5): 1.99 s⁻¹

activity relative to PDTM3 ([2]; whatever the couple of bases tested): two times more active than PDTM3
B12: PDTM4: NDT mutant R13 S92 S123, SEQ ID NO:6 (protein)
chain: B1 chain with N123S
modifications: PDTM4 enzyme mutant
Specific activity [3, 4]: 43 nanomoles of deoxynucleotides synthesized per min per mg of protein
Specific activity [3, 5]: 96 nanomoles of deoxynucleotides synthesized per min per mg of protein
Specific activity [3, 6]: 32 nanomoles of deoxynucleotides synthesized per min per mg of protein
Specific activity [3, 7]: 35 nanomoles of deoxynucleotides synthesized per min per mg of protein
Specific activity [3, 8]: 24 nanomoles of deoxynucleotides synthesized per min per mg of protein
Specific activity ([2]; dAMP + C ⇄ dCMP + A): 77.6 nanomoles of deoxynucleotides synthesized per min per mg of protein
Specific activity ([2]; dAMP + Hx ⇄ dIMP + A): <0.1 nanomoles of deoxynucleotides synthesized per min per mg of protein
Specific activity ([2]; dCMP + A ⇄ dAMP + C): 170 nanomoles of deoxynucleotides synthesized per min per mg of protein
Specific activity ([2]; dCMP + T ⇄ dTMP + C): 52 nanomoles of deoxynucleotides synthesized per min per mg of protein
Specific activity ([2]; dGMP + A ⇄ dAMP + G): 57 nanomoles of deoxynucleotides synthesized per min per mg of protein
factor of enhancement of deoxyribose 5-phosphate transferase activity between C and A [2]: 50
